PMC6484134 (2019)

Assays:
[1] = target: Cul3N (human Cul3 N-terminal domain, residues 1–388, I342R L346D) (human, UniProt Q13618 1-388, I342R | L346D); experiment: ITC
[2] = target: Cul3NΔ22 (human Cul3 N-terminal domain, residues 23–388, I342R L346D) (human, UniProt Q13618 23-388, I342R | L346D); experiment: ITC
Cul3NΔ22 (human Cul3 N-terminal domain, residues 23–388, I342R L346D), sequence (Q13618 23-388 I342R/L346D): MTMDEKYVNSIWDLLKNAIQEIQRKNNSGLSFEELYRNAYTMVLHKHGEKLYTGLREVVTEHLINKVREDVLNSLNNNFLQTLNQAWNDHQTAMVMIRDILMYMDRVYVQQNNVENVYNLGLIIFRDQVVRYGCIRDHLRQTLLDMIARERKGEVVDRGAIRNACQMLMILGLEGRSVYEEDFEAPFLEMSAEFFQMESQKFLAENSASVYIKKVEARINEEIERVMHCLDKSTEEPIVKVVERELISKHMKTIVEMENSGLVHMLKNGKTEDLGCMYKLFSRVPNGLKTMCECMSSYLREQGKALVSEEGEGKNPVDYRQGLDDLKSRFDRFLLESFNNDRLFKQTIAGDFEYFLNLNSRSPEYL

Cul3N (human Cul3 N-terminal domain, residues 1–388, I342R L346D), sequence (Q13618 1-388 I342R/L346D): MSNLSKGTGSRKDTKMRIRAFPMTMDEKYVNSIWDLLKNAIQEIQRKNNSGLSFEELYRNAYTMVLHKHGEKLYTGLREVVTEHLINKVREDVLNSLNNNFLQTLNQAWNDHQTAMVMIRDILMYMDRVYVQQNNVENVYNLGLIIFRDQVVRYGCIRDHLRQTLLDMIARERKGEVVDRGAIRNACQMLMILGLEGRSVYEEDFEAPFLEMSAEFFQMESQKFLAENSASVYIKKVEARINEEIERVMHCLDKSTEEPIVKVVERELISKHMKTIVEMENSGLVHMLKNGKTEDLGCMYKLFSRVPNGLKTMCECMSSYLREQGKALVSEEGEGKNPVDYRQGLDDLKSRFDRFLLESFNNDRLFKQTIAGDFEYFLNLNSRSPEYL

Kd [1]: 22.9 nM
Kd [2]: 36.2 nM
B1: KLHL3-BB (human KLHL3 BTB-BACK domain, residues 24–276) (domain or fragment)
chain: RTITVNPAHMGKAFKVMNELRSKQLLCDVMIVAEDVEIEAHRVVLAACSPYFCAMFTGDMSESKAKKIEIKDVDGQTLSKLIDYIYTAEIEVTEENVQVLLPAASLLQLMDVRQNCCDFLQSQLHPTNCLGIRAFADVHTCTDLLQQANAYAEQHFPEVMLGEEFLSLSLDQVCSLISSDKLTVSSEEKVFEAVISWINYEKETRLEHMAKLMEHVRLPLLPRDYLVQTVEEEALIKNNNTCKDFLIEAMKYH
